# Assay results: the Immune Epitope Database (IEDB)
# Key:
# HLA-C*14:02 = assay: IEDB peptide-MHC binding, purified MHC/direct/fluorescence; filed as Kd, often an IC50 or EC50 that approximates it; ≥ and ≤ were set here for values at or beyond the usual limits of such assays; details: source organism: Influenza A virus (A/swine/Italy/1509-6/97(H1N1))
# HLA-C*06:02 = assay: as above; details: source organism: Influenza A virus (A/swine/Italy/1509-6/97(H1N1))
# HLA-B*07:02 = assay: IEDB peptide-MHC binding, purified MHC/competitive/fluorescence; filed as Kd, often an IC50 or EC50 that approximates it; ≥ and ≤ were set here for values at or beyond the usual limits of such assays; details: source organism: Influenza A virus (A/swine/Italy/1509-6/97(H1N1))
# HLA-C*12:03 = assay: IEDB peptide-MHC binding, purified MHC/direct/fluorescence; filed as Kd, often an IC50 or EC50 that approximates it; ≥ and ≤ were set here for values at or beyond the usual limits of such assays
# HLA-C*04:01 = assay: as above
# HLA-C*03:03 = assay: as above
# HLA-B*46:01 [1] = assay: IEDB peptide-MHC binding, purified MHC/competitive/fluorescence; filed as Kd, often an IC50 or EC50 that approximates it; ≥ and ≤ were set here for values at or beyond the usual limits of such assays; details: source organism: Escherichia coli 536
# HLA-A*02:06 = assay: IEDB peptide-MHC binding, purified MHC/competitive/radioactivity; filed as Kd, often an IC50 or EC50 that approximates it; ≥ and ≤ were set here for values at or beyond the usual limits of such assays; details: source organism: Vaccinia virus WR
# HLA-A*02:03 = assay: as above; details: source organism: Vaccinia virus WR
# HLA-A*02:02 = assay: as above; details: source organism: Vaccinia virus WR
# HLA-C*05:01 = assay: IEDB peptide-MHC binding, purified MHC/direct/fluorescence; filed as Kd, often an IC50 or EC50 that approximates it; ≥ and ≤ were set here for values at or beyond the usual limits of such assays; details: source organism: Variola virus
# HLA-A*69:01 = assay: as above
# HLA-B*48:01 = assay: as above; details: source organism: Bacillus anthracis
# HLA-B*18:01 = assay: as above; details: source organism: Bacillus anthracis
# HLA-B*57:01 = assay: as above; details: source organism: Bacillus anthracis
# HLA-A*02:01 = assay: as above; details: source organism: Bacillus anthracis
# HLA-B*40:01 = assay: as above; details: source organism: Bacillus anthracis
# HLA-A*03:01 = assay: as above; details: source organism: Bacillus anthracis
# HLA-B*58:01 = assay: as above; details: source organism: Bacillus anthracis
# HLA-A*01:01 = assay: as above; details: source organism: Bacillus anthracis
# HLA-B*46:01 [2] = assay: as above; details: source organism: Bacillus anthracis
# HLA-B*15:01 = assay: as above; details: source organism: Bacillus anthracis
# HLA-B*15:17 = assay: as above; details: source organism: Bacillus anthracis
# HLA-A*31:01 = assay: as above; details: source organism: Bacillus anthracis
# HLA-B*51:01 = assay: as above; details: source organism: Bacillus anthracis
# HLA-A*11:01 = assay: IEDB peptide-MHC binding, purified MHC/competitive/fluorescence; filed as Kd, often an IC50 or EC50 that approximates it; ≥ and ≤ were set here for values at or beyond the usual limits of such assays; details: source organism: Escherichia coli APEC O1
# HLA-B*27:05 = assay: as above; details: source organism: Escherichia coli APEC O1
# HLA-A*26:01 = assay: IEDB peptide-MHC binding, purified MHC/direct/fluorescence; filed as Kd, often an IC50 or EC50 that approximates it; ≥ and ≤ were set here for values at or beyond the usual limits of such assays; details: source organism: Influenza A virus (A/chicken/Beijing/nl/2002(H9N2))
# HLA-A*26:02 = assay: as above; details: source organism: Influenza A virus(A/swine/Shandong/fNY/2003(H9N2))
# HLA-C*08:02 = assay: as above
# HLA-A*29:02 = assay: IEDB peptide-MHC binding, purified MHC/competitive/fluorescence; filed as Kd, often an IC50 or EC50 that approximates it; ≥ and ≤ were set here for values at or beyond the usual limits of such assays; details: source organism: Bacillus anthracis str. A0488
# HLA-A*24:03 = assay: IEDB peptide-MHC binding, purified MHC/direct/fluorescence; filed as Kd, often an IC50 or EC50 that approximates it; ≥ and ≤ were set here for values at or beyond the usual limits of such assays; details: source organism: Mycobacterium tuberculosis
# [3] = source organism: Escherichia coli 536
# [4] = source organism: Yellow fever virus
sequence,measurement,setting,value
ATYQRTRAL,Kd,HLA-C*14:02,0.246 µM
same,Kd,HLA-C*06:02,0.075 µM
same,Kd,HLA-B*07:02,0.197 µM
FMFDSDEAM,Kd,HLA-C*12:03; [3],0.174 µM
same,Kd,HLA-C*04:01; [3],≥ 20 µM
same,Kd,HLA-C*03:03; [3],0.005 µM
same,Kd,HLA-B*46:01 [1],0.0292 µM
KVDDTFYYV,Kd,HLA-A*02:06,≥ 34.3 µM
same,Kd,HLA-A*02:03,≥ 78.1 µM
same,Kd,HLA-A*02:02,1.85 µM
same,Kd,HLA-C*05:01,0.003 µM
same,Kd,HLA-A*69:01; source organism: Camelpox virus CMS,0.002 µM
same,Kd,HLA-C*03:03; source organism: Variola virus,≥ 20 µM
TPRIANRLL,Kd,HLA-B*48:01,≥ 20 µM
same,Kd,HLA-B*18:01,≥ 20 µM
same,Kd,HLA-B*57:01,≥ 20 µM
same,Kd,HLA-A*02:01,≥ 20 µM
same,Kd,HLA-B*40:01,≥ 20 µM
same,Kd,HLA-A*03:01,≥ 20 µM
same,Kd,HLA-B*58:01,≥ 20 µM
same,Kd,HLA-A*01:01,≥ 20 µM
same,Kd,HLA-B*46:01 [2],≥ 20 µM
same,Kd,HLA-A*69:01; source organism: Bacillus anthracis,≥ 20 µM
same,Kd,HLA-B*15:01,≥ 20 µM
same,Kd,HLA-B*15:17,≥ 20 µM
same,Kd,HLA-A*31:01,≥ 20 µM
same,Kd,HLA-B*51:01,≥ 20 µM
same,Kd,HLA-A*11:01,1.37 µM
same,Kd,HLA-B*27:05,≥ 20 µM
TTVDHMAII,Kd,HLA-A*26:01,0.0678 µM
same,Kd,HLA-A*26:02,0.012 µM
YMPDVLEKL,Kd,HLA-C*08:02; [4],≥ 20 µM
same,Kd,HLA-C*12:03; [4],≥ 20 µM
same,Kd,HLA-C*03:03; [4],≥ 20 µM
YTVQGAGLM,Kd,HLA-C*08:02; source organism: Bacillus anthracis str. A0488,≥ 20 µM
same,Kd,HLA-A*29:02,0.026 µM
YYIIETEHL,Kd,HLA-C*04:01; source organism: Mycobacterium tuberculosis H37Ra,≥ 20 µM
same,Kd,HLA-A*24:03,0.0002 µM
